Values joined by “and” are separate entries in the source; they are usually repeats but may differ in a detail not shown here. Identical values can stand only once. Where no end group is shown, it is not given here.
Test: Liver serum markers after PFC injection
Format: in vivo, mouse
Parameters: serum level of ALP (alkaline phosphatase) / serum level of ALT (alanine aminotransferase) / serum level of GLDH (glutamate dehydrogenase) / serum level of AST (aspartate aminotransferase): unit not given here
Conditions: 1 mM per kg BW i.v. over 3 consecutive days, blood 24 h after last injection; individual mice
Method: ^ConPFCs, ^mNPPFCs (each at 1 mM per kg BW) or saline were injected i.v. over 3 consecutive days. Twenty-four hours after the last injection, mice were killed, and blood samples were withdrawn to determine GLDH, AST, ALP, ALT and bilirubin levels by standard clinical procedures. Furthermore, the liver and spleen were dissected, fixed in formalin and snap frozen. Subsequently, 4-µm cryosections were cut and stained with hematoxylin and eosin as described previously.
Extended Data Fig. 3 Assessment of ^mNPPFC/^ConPFC biodistribution, liver serum markers and histology of liver and spleen. a, Biodistribution of intravenously injected ^mNPPFCs was determined via ^19F MRI measurements at distinct time points after injection (1, 3, 6 and 24 h after injection). Shown are quantification of fluorine signal intensities in the blood, liver and spleen indicating a fast wash-out from the blood accompanied by a strong influx into the liver while signal intensities in the spleen were constant over the entire observation period; a.u. = arbitrary units. b, Serum levels of GLDH (glutamate dehydrogenase), AST (aspartate aminotransferase), ALP (alkaline phosphatase), ALT (alanine aminotransferase) and bilirubin after intravenous application of NaCl as control, ^ConPFCs or ^mNPPFCs. c + d, 4 µm sections of liver (C) and spleen (D) stained with hematoxylin and eosin. Organs were excised and processed for histology 24 h post injection of NaCl (upper row), ^ConPFCs (middle), ^mNPPFCs (lower). Representative liver/spleen images of organs from three different animals are shown. Scale bars indicate 100 µm. Data are mean values ± SD of n = 6 (a), n = 4-6 (b) and n = 6 (c + d) independent experiments. Source data

## SLAMFLTHSPEP-GGG-C [Con, reference compound]
  serum level of ALP (alkaline phosphatase): 5.7 and 16.2 and 33.5 and 13.2 and 6.6 and 3.4
  serum level of ALT (alanine aminotransferase): 1.6 and 0.9 and 0.6 and 0.8 and 1.3
  serum level of AST (aspartate aminotransferase): 0.4 and 2 and 3.4 and 0.6 and 3.1 and 2.6
  serum level of GLDH (glutamate dehydrogenase): 1.19 and 1.21 and 2.18 and 0.14

## DFYKPMPNLRITGGGC [mNP]
  serum level of ALP (alkaline phosphatase): 4.3 and 4.6 and 15.5 and 19.1 and 10.5 and 11.8
  serum level of ALT (alanine aminotransferase): 0.1 and 1 and 0.8
  serum level of AST (aspartate aminotransferase): 1.5 and 6.8 and 1.6 and 1.4 and 2.5 and 2.3
  serum level of GLDH (glutamate dehydrogenase): 0.89 and 1.11 and 3.48 and 0.9 and 0.22 and 0.33
